Test results: patent US20100243450, “NON-EQUILIBRIUM CAPILLARY ELECTROPHORESIS OF EQUILIBRIUM MIXTURES (NECEEM)-BASED METHODS FOR DRUG AND DIAGNOSTIC DEVELOPMENT” (published 2010)

Experiments:
[1] = molecular target: T1, SSB (single-stranded DNA-binding protein) (UniProt P0AGE0 P0AGE0:2-178); assay: NECEEM; 25 mM tetraborate pH 9.4, incubated at room temperature; koff 3.3e-2 s-1, kon 1.2e5 M-1 s-1; settings: chain copies: 4; label: 5'-fluorescein
Experimental: SSB and a fluorescently-labeled 15-mer ssDNA oligonucleotide, 5′-fluorescein-[…] ([…]) were used in this example (Berezovski and Krylov J. Amer. Chem. Soc. 2002, 124, 13674). NECEEM separation of protein-DNA complexes was performed using a laboratory-built CE instrument with fluorescence detector described in detail elsewhere (Wu and Dovichi J. Chromatogr. 1989, 480, 141). A 488 nm line of an Argon-ion laser was utilized to excite the fluorescence of the DNA. Uncoated fused silica capillaries of 40 cm×20 μm I.D.×150 μm O.D. were used. The electrophoresis was run with a positive electrode at the injection end biased at +24 kV. The run buffer for NECEEM was 25.0 mM tetraborate at pH 9.4. The samples were injected into the capillary by a pressure pulse of 1 s×9.1 kPa; the length of corresponding sample plug was 0.93 mm as was calculated using the Poiseulle equation (Krylov et al. Anal. Chem. 2000, 72, 872). The capillary was rinsed with the run buffer solution for 2 minutes prior to each run. At the end of each run, the capillary was rinsed with 100 mM NaOH for 2 minutes, followed by a rinse with deionized water for 2 minutes.
Equilibrium mixtures of SSB, fDNA and SSB•fDNA complex were prepared by mixing solutions of 16 μM SSB and 205 nM fDNA in the run buffer at a desired volume ratio and incubating them at room temperature to reach equilibrium prior to the analysis. […]

[2] = molecular target: T1, SSB (single-stranded DNA-binding …); assay: NECEEM run buffer 25 mM tetraborate pH 9.4 with 100 nM SSB; binds via single-stranded overhang; settings: chain copies: 4; label: 5'-fluorescein on DNA-1; duplex with 10-nt single-stranded overhang
[3] = molecular target: T1, SSB (single-stranded DNA-binding …); assay: NECEEM run buffer 25 mM tetraborate pH 9.4 with 100 nM SSB; fully double-stranded, not bound; settings: chain copies: 4; label: 5'-fluorescein on DNA-1; duplex without single-stranded overhang

T1 sequence (P0AGE0 2-178, one chain of several): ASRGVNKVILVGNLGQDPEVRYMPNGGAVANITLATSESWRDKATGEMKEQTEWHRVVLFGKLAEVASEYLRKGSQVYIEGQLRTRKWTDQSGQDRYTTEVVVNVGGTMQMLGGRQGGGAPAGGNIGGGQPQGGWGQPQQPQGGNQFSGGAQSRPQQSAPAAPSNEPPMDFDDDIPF

B1: fDNA 15-mer (DNA-1) (ssDNA)
DNA: GCGGAGCGTGGCAGG
Kd [1]: 280 nM

B2: DNA-1/DNA-3 hybrid (mixed)
DNA 1: GCGGAGCGTGGCAGG
DNA 2: CCTGCCACGCTCCGCTCTAAAAATAA
binding result [2]: binds

B3: DNA-1/DNA-3/DNA-2 hybrid (dsDNA)
DNA 1: GCGGAGCGTGGCAGG
DNA 2: CCTGCCACGCTCCGCTCTAAAAATAA
DNA 3: TTATTTTTAG
binding result [3]: no binding
